In patent US20190375821A1 one finds Kd data, which are given here for one substance.

This experiment has as its target VEGF165 (UniProt P15692). In words: ELISA, plate coated with VEGF, anti-human Fc-HRP detection.

Sequence of VEGF165 (P15692 other isoform, or with tags, fused parts or gaps limits assumed): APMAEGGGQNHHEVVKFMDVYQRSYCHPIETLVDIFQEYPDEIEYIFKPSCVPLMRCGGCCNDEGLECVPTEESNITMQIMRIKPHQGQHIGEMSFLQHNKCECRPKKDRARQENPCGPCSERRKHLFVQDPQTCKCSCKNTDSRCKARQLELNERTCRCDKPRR

In turn, VEGF-trap (aflibercept) (Fc fusion) yielded a Kd of 0.5 pM.
